Where a chain is given by its changes, count along the chain named.
T1: hiR2-FL-I566E-T7 (human iRhom2 full length I566E, 3 x T7 tag) (human, UniProt Q6PJF5 1-856)
T1 sequence: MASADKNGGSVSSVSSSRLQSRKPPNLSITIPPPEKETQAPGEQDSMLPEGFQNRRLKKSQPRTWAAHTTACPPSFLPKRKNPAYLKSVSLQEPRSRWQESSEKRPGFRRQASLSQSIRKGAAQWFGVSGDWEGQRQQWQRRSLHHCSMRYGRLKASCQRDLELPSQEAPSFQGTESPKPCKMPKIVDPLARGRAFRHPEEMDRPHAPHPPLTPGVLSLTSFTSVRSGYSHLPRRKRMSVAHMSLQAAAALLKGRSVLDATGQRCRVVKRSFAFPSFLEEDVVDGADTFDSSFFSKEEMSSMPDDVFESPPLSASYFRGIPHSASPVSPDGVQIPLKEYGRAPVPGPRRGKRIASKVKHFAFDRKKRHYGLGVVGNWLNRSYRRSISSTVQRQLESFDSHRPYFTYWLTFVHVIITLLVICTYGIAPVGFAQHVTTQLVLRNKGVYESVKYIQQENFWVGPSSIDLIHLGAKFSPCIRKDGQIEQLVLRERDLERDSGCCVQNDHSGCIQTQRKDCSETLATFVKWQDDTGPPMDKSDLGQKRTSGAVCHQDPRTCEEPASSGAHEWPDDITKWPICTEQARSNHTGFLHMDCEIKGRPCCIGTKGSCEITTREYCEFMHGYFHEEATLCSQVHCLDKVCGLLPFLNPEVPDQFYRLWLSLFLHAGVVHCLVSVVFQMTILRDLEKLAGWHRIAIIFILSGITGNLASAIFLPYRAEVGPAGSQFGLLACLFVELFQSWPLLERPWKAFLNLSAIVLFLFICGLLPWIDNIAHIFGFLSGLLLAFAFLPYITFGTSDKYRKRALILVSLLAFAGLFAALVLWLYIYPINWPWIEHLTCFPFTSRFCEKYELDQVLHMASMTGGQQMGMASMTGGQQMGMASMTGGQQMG

B1: antibody 34 (antibody, V domains shown)
VH: QVTLKESGPGILQPSQTLSLTCSFSGFSLSTFSLGVGWIRQSSGKGLEWLAHIWWDDEKYYNPALKSRLTISKDTSKNQVFLKIANVDAADTATYYCARAYYSKSYYALDYWGQGTSVTVSS
VL: DIQMTQSPSSLSASLGERVSLTCRASQEISGYLSWLQQKPDGTIKRLIYAASTLDSGVPKRFSGSRSGSDYSLAISSLESEDFADYYCLQYANFPFTFGSGTKLEIK
notes: Mouse IgG, kappa light chain; also called clone #34; m34
B2: antibody 43 (antibody, V domains shown)
VH: QVALKESGPGILQPSQTLSLTCSFSGFSLSTFGMGVGWIRQSSGKGLEWLANIWWDDDKYYNPALKSRLTISKDASKNQAFLKIANVDTADTATYYCARIGNYGSNYWYFDVWGTGTTVTVSS
VL: QIVLTQSPAIMSASPGERVTMTCSANSRISYMYWYQQKPGSSPRLLIYDTSNLASGVPVRFSGSGSGTSYSLTISRMEAEDAATYNCQQWSSYPLTFGAGTKLELK
notes: Mouse IgG, kappa light chain; also called clone #43
B3: antibody 42 (antibody, V domains shown)
VH: B2 VH with A3T, F24L, M34R, S42P, N52H, D58E, A75T, A80V, K83R, G101Q
VL: B2 VL with Q1L, R18K, S24G, N26T, Y33F, L45V, M77V, A82V, N86Y, S91N
notes: Mouse IgG, kappa light chain; also called clone #42; m42
B4: antibody 44 (antibody, V domains shown)
VH: B2 VH with A3T, S42P, G44E, N52H, A75T, A80I, A85T, D91E, A98S
VL: QIVLTQSPAVMSASPGEKVTMTCTASSSVYYMYWYQQTPGSSPRLLIYDTSNLASGVPVRFSGSGSGTSYSLTISRMEAEDAATYYCQQWNTYPLTFGAGTKLELK
notes: Mouse IgG, kappa light chain; also called clone #44; m44
B5: antibody 22 (antibody, V domains shown)
VH: B2 VH with A3T, S42P, N52H, D58E, P63S, D74A, A75T, A80V, G101S, D111N
VL: B4 VL with I2V, V10L, T24S, S26G, Y30S, T38K, L45V, V59A, S62T, T92S
notes: Mouse IgG, kappa light chain; also called clone #22; m22

Each binder was assayed against T1, hiR2-FL-I566E-T7 (human iRhom2 full …) (assay: FACS on cells of the row I566E, vs human iR2 wild type = 100%).
Text: In brief, immortalized MEF-DKO hiR2-FL-G563D-T7, MEF-DKO hiR2-FL-A564P-T7, MEF-DKO hiR2-FL-I566E-T7, MEF-DKO hiR2-FL-D569E-T7, MEF-DKO hiR2-FL-E579K-T7, MEF-DKO hiR2-FL-Q580N-T7, MEF-DKO hiR2-FL-A581S-T7, MEF-DKO hiR2-FL-R582A-T7, MEF-DKO hiR2-FL-S583G-T7, MEF-DKO hiR2-FL-G587N-T7, MEF-DKO hiR2-FL-F588H-T7, MEF-DKO hiR2-FL-L589P-T7, MEF-DKO hiR2-FL-E594V-T7, MEF-DKO hiR2-FL-K596T-T7, MEF-DKO hiR2-FL-S607R-T7, MEF-DKO hiR2-FL-T612S-T7, MEF-DKO hiR2-FL-E617D-T7, MEF-DKO hiR2-FL-H620R-T7, MEF-DKO hiR2-FL-L636M-T7, MEF-DKO hiR2-FL-K638D-T7, MEF-DKO hiR2-FL-I771F-T7, MEF-DKO hiR2-FL-I825V-T7, MEF-DKO hiR2-FL-I828V-T7, MEF-DKO hiR2-FL-N829R-T7, MEF-DKO hiR2-FL-W830C-T7, MEF-DKO hiR2-FL-P831E-T7, MEF-DKO hiR2-FL-1833C-T7, MEF-DKO hiR2-FL-H835F-T7, MEF-DKO hiR2-FL-F839I-T7, MEF-DKO hiR2-FL-S843D-T7, MEF-DKO hiR2-FL-Q853A-T7, MEF-DKO hiR2-FL-V854Q-T7 and MEF-DKO hiR2-FL-R844K-T7 cells were harvested with 10 mM EDTA in PBS, washed and resuspended in FACS buffer (PBS, 3% FBS, 0.05% sodium azide), and seeded in Nunc U-bottom 96-well plates (Thermo Fisher Scientific, USA) at approximately 1×10⁵ cells per well. To pellet cells and remove supernatants, the plates were centrifuged at 1,500 rpm and 4° C. for 3 minutes. For primary staining, cells were resuspended in 100 μl per well of either FACS buffer alone (controls) or the purified antibodies 3, 5, 16, 22, 34, 42, 43, 44, 48, and 50 of the present disclosure at 3 μg/ml in FACS buffer and incubated on ice for 1 hour. Afterwards, plates were centrifuged at 1,500 rpm and 4° C. for 3 minutes and washed twice with 200 μl per well of FACS buffer. For secondary staining, cells were spun down and resuspended in 100 μl per well of PE-conjugated goat anti-mouse IgG F(ab′)2 detection fragment (Dianova, Germany) diluted 1:100 in FACS buffer. Protected from light, the cell suspensions were incubated on ice for 1 hour. Plates were then centrifuged at 1,500 rpm and 4° C. for 3 minutes and washed three times with 200 μl per well of FACS buffer. Finally, cells were resuspended in 150 μl per well of FACS buffer and analyzed using a BD Accuri™ C6 Plus flow cytometer (Becton Dickinson, Germany).

Binder | grade of loss of binding vs wild type
B1 | 2 grade (2 => 60% loss of binding vs wild type)
B2 | 2 grade (2 => 60% loss of binding vs wild type)
B3 | 2 grade (2 => 60% loss of binding vs wild type)
B4 | 2 grade (2 => 60% loss of binding vs wild type)
B5 | 2 grade (2 => 60% loss of binding vs wild type)

— patent publication US20240174744A1 (SCIRHOM, published 2024)
